Measured values from patent US20200197495A1.

Columns and labels:
Assay in all cases: cell-based or functional assay
[1] = molecular target: CSL627 (recombinant B-Domain-deleted single chain FVIII, rVIII-SingleChain) (Homo sapiens (Human)) (UniProt P00451)
[2] = molecular target: Helixate (rec. FVIII from CSL Behring) (UniProt P00451)
[3] = molecular target: ReFacto (rec. FVIII from Pfizer) (UniProt P00451)
[4] = molecular target: Advate (rec. FVIII from Shire) (UniProt P00451)

Row | IC50, inhibition of factor VIII uptake in MDDCs [1] | reduction of CSL627 antigen presentation, HLA-DQB1 restricted peptide clusters [1] | reduction of CSL627 antigen presentation, peptide clusters (printed HLA-DQB1 a second time) [1] | reduction of CSL627 antigen presentation, unique HLA-DPB1 bound peptides [1] | reduction of CSL627 antigen presentation, unique HLA-DQB1 bound peptides [1] | IC50, inhibition of factor VIII uptake in MDDCs [2] | IC50, inhibition of factor VIII uptake in MDDCs [3] | IC50, inhibition of factor VIII uptake in MDDCs [4] | Substance
1 | 744 nM | 10 fold | 3.5 fold | 14.2 fold | 21.7 fold | 823 nM | 963 nM | – | plasma-derived von Willebrand Factor (pdVWF; BIOSTATE, human plasma derived VWF from CSL Behring) (from UniProt P04275 23-2813)
2 | 1720 nM | – | – | – | – | 1690 nM | 1570 nM | 2230 nM | CSL626 (truncated VWF (764-1242)-albumin fusion, dimer)
3 | 750 nM | – | – | – | – | 552 nM | 778 nM | 769 nM | CSL650 (rec. VWF-albumin fusion from CSL Behring)
